In publication PMC2120187:

Biological target: murine IgG heavy chain (murine)
Assay: immunoprecipitation with anti-mouse IgG and non-reducing SDS-PAGE

murine IgG heavy chain
stoichiometry N: 2
